# Laboratory results reported in IntAct's records for PubMed 26912900.
# B1: 26S proteasome regulatory subunit RPN1 (Saccharomyces cerevisiae), P38764 (parent)
# chain: MVDESDKKQQTIDEQSQISPEKQTPNKKDKKKEEEEQLSEEDAKLKTDLELLVERLKEDDSSLYEASLNALKESIKNSTSSMTAVPKPLKFLRPTYPDLCSIYDKWTDPNLKSSLADVLSILAMTYSENGKHDSLRYRLLSDVSDFEGWGHEYIRHLALEIGEVYNDQVEKDAEDETSSDGSKSDGSAATSGFEFSKEDTLRLCLDIVPYFLKHNGEEDAVDLLLEIESIDKLPQFVDENTFQRVCQYMVACVPLLPPPEDVAFLKTAYSIYLSQNELTDAIALAVRLGEEDMIRSVFDATSDPVMHKQLAYILAAQKTSFEYEGVQDIIGNGKLSEHFLYLAKELNLTGPKVPEDIYKSHLDNSKSVFSSAGLDSAQQNLASSFVNGFLNLGYCNDKLIVDNDNWVYKTKGDGMTSAVASIGSIYQWNLDGLQQLDKYLYVDEPEVKAGALLGIGISASGVHDGEVEPALLLLQDYVTNPDTKISSAAILGLGIAFAGSKNDEVLGLLLPIAASTDLPIETAAMASLALAHVFVGTCNGDITTSIMDNFLERTAIELKTDWVRFLALALGILYMGQGEQVDDVLETISAIEHPMTSAIEVLVGSCAYTGTGDVLLIQDLLHRLTPKNVKGEEDADEEETAEGQTNSISDFLGEQVNEPTKNEEAEIEVDEMEVDAEGEEVEVKAEITEKKNGESLEGEEIKSEEKKGKSSDKDATTDGKNDDEEEEKEAGIVDELAYAVLGIALIALGEDIGKEMSLRHFGHLMHYGNEHIRRMVPLAMGIVSVSDPQMKVFDTLTRFSHDADLEVSMNSIFAMGLCGAGTNNARLAQLLRQLASYYSREQDALFITRLAQGLLHLGKGTMTMDVFNDAHVLNKVTLASILTTAVGLVSPSFMLKHHQLFYMLNAGIRPKFILALNDEGEPIKVNVRVGQAVETVGQAGRPKKITGWITQSTPVLLNHGERAELETDEYISYTSHIEGVVILKKNPDYREEE
# partner: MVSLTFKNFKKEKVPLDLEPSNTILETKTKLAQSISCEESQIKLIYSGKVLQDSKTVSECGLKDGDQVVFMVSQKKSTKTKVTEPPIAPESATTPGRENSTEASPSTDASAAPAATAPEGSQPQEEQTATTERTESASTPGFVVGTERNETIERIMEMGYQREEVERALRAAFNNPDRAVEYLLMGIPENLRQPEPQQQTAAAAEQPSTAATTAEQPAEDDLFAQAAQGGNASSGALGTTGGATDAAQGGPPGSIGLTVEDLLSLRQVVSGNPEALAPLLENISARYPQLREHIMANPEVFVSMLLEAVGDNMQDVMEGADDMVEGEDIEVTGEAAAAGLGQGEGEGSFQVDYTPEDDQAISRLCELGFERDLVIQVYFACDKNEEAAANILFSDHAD
# Variants of: B1
# Details: with rad23_yeast RAD23, P32628
row,Variant,effect of a mutation on the interaction
1,D541A;D548R;E552R,disrupting interaction strength
